Data from publication PMC3367207 (Nucleic Acids Research, 2012).

Target: the molecule itself
Experiment: FRET or BRET

B1: FokI restriction endonuclease (enzyme, UniProt P14870 1-579, looked up)
chain: MVSKIRTFGWVQNPGKFENLKRVVQVFDRNSKVHNEVKNIKIPTLVKESKIQKELVAIMNQHDLIYTYKELVGTGTSIRSEAPCDAIIQATIADQGNKKGYIDNWSSDGFLRWAHALGFIEYINKSDSFVITDVGLAYSKSADGSAIEKEILIEAISSYPPAIRILTLLEDGQHLTKFDLGKNLGFSGESGFTSLPEGILLDTLANAMPKDKGEIRNNWEGSSDKYARMIGGWLDKLGLVKQGKKEFIIPTLGKPDNKEFISHAFKITGEGLKVLRRAKGSTKFTRVPKRVYWEMLATNLTDKEYVRTRRALILEILIKAGSLKIEQIQDNLKKLGFDEVIETIENDIKGLINTGIFIEIKGRFYQLKDHILQFVIPNRGVTKQLVKSELEEKKSELRHKLKYVPHEYIELIEIARNSTQDRILEMKVMEFFMKVYGYRGKHLGGSRKPDGAIYTVGSPIDYGVIVDTKAYSGGYNLPIGQADEMQRYVEENQTRNKHINPNEWWKVYPSSVTEFKFLFVSGHFKGNYKAQLTRLNHITNCNGAVLSVEELLIGGEMIKAGTLTLEEVRRKFNNGEINF
binding result: binds
